# Numbering of substitutions follows the chain as printed. In names and notes the source's numbering stands.
# T1: TNFR1 (Homo sapiens, UniProt P19438)
# T1 chain: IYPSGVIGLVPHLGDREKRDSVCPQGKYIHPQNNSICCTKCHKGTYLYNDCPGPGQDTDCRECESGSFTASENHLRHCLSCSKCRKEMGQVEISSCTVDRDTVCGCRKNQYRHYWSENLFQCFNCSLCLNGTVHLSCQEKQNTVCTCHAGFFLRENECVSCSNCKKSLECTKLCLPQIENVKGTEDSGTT
# B1: E4V (designed binder)
# chain: SMEVEVEKAAKEYEKKKKEAIEKHLEKLKAKDKEAAERFLKELEEAAKEYAKDEAKTMSEEEAKRRAKKYKEKVLLSELSEEEQKEIKEAEEKLVRTILKYVEEAAK
# B2: R66M (designed binder)
# chain: B1 chain with V4E, R66M
# B3: A35R (designed binder)
# chain: B1 chain with V4E, A35R
# B4: K73E (designed binder)
# chain: B1 chain with V4E, K73E
# B5: K73N (designed binder)
# chain: B1 chain with V4E, K73N
# B6: S1R (designed binder)
# chain: B1 chain with S1R, V4E
# B7: D53S (designed binder)
# chain: B1 chain with V4E, D53S
# B8: K69Y (designed binder)
# chain: B1 chain with V4E, K69Y
# B9: Y70G (designed binder)
# chain: B1 chain with V4E, Y70G
# B10: A30F (designed binder)
# chain: B1 chain with V4E, A30F
# B11: K8V (designed binder)
# chain: B1 chain with V4E, K8V
# B12: R96A (designed binder)
# chain: B1 chain with V4E, R96A
# B13: R66C (designed binder)
# chain: B1 chain with V4E, R66C
# B14: K8I (designed binder)
# chain: B1 chain with V4E, K8I
# B15: R38Q (designed binder)
# chain: B1 chain with V4E, R38Q
# B16: K8S (designed binder)
# chain: B1 chain with V4E, K8S
# B17: K33M (designed binder)
# chain: B1 chain with V4E, K33M
# B18: K41E (designed binder)
# chain: B1 chain with V4E, K41E
# B19: S80Q (designed binder)
# chain: B1 chain with V4E, S80Q
# B20: K73G (designed binder)
# chain: B1 chain with V4E, K73G
# B21: A63R (designed binder)
# chain: B1 chain with V4E, A63R
# B22: Y50I (designed binder)
# chain: B1 chain with V4E, Y50I
# B23: K23N (designed binder)
# chain: B1 chain with V4E, K23N
# B24: E3H (designed binder)
# chain: B1 chain with E3H, V4E
# B25: E81R (designed binder)
# chain: B1 chain with V4E, E81R
# B26: L25A (designed binder)
# chain: B1 chain with V4E, L25A
# B27: Y13H (designed binder)
# chain: B1 chain with V4E, Y13H
# B28: E60D (designed binder)
# chain: B1 chain with V4E, E60D
# B29: V102Q (designed binder)
# chain: B1 chain with V4E, V102Q
# B30: L94I (designed binder)
# chain: B1 chain with V4E, L94I
# B31: Y50K (designed binder)
# chain: B1 chain with V4E, Y50K
# B32: E83Q (designed binder)
# chain: B1 chain with V4E, E83Q
# B33: K107M (designed binder)
# chain: B1 chain with V4E, K107M
# B34: E34G (designed binder)
# chain: B1 chain with V4E, E34G
# B35: E91A (designed binder)
# chain: B1 chain with V4E, E91A
# B36: E45D (designed binder)
# chain: B1 chain with V4E, E45D
# B37: E12W (designed binder)
# chain: B1 chain with V4E, E12W
# B38: H24M (designed binder)
# chain: B1 chain with V4E, H24M
# B39: E81F (designed binder)
# chain: B1 chain with V4E, E81F
# B40: I98G (designed binder)
# chain: B1 chain with V4E, I98G
# B41: E61Q (designed binder)
# chain: B1 chain with V4E, E61Q
# B42: Y70D (designed binder)
# chain: B1 chain with V4E, Y70D
# B43: E91V (designed binder)
# chain: B1 chain with V4E, E91V
# B44: E82P (designed binder)
# chain: B1 chain with V4E, E82P
# B45: E83N (designed binder)
# chain: B1 chain with V4E, E83N
# B46: K56G (designed binder)
# chain: B1 chain with V4E, K56G
# B47: S59M (designed binder)
# chain: B1 chain with V4E, S59M
# B48: E49M (designed binder)
# chain: B1 chain with V4E, E49M
# B49: E78D (designed binder)
# chain: B1 chain with V4E, E78D
# B50: A63G (designed binder)
# chain: B1 chain with V4E, A63G
# B51: E37V (designed binder)
# chain: B1 chain with V4E, E37V
# B52: V6S (designed binder)
# chain: B1 chain with V4E, V6S
# B53: I98C (designed binder)
# chain: B1 chain with V4E, I98C
# B54: Y101P (designed binder)
# chain: B1 chain with V4E, Y101P
# B55: E34F (designed binder)
# chain: B1 chain with V4E, E34F
# B56: K31L (designed binder)
# chain: B1 chain with V4E, K31L
# B57: E14R (designed binder)
# chain: B1 chain with V4E, E14R
# B58: K23Q (designed binder)
# chain: B1 chain with V4E, K23Q
# B59: K31C (designed binder)
# chain: B1 chain with V4E, K31C
# Target: T1, TNFR1
# Assay: yeast display SC50
row,Binder,apparent Kd (screen)
1,B1,1.05 nM
2,B2,26.9 nM
3,B3,0.539 nM
4,B4,11.4 nM
5,B5,13.8 nM
6,B6,0.869 nM
7,B7,0.446 nM
8,B8,2.48 nM
9,B9,3.99 nM
10,B10,0.869 nM
11,B11,1.16 nM
12,B12,3 nM
13,B13,5.84 nM
14,B14,1.05 nM
15,B15,1.86 nM
16,B16,1.4 nM
17,B17,0.593 nM
18,B18,0.49 nM
19,B19,1.27 nM
20,B20,22.2 nM

row,Binder,apparent Kd (screen)
1,B21,6.43 nM
2,B22,0.0802 nM
3,B23,0.49 nM
4,B24,1.86 nM
5,B25,0.49 nM
6,B26,0.593 nM
7,B27,0.446 nM
8,B28,1.27 nM
9,B29,0.208 nM
10,B30,0.405 nM
11,B31,3.99 nM
12,B32,0.593 nM
13,B33,1.4 nM
14,B34,0.405 nM
15,B35,7.07 nM
16,B36,0.539 nM
17,B37,1.54 nM
18,B38,0.49 nM
19,B39,0.593 nM
20,B40,6.43 nM

row,Binder,apparent Kd (screen)
1,B41,1.4 nM
2,B42,5.84 nM
3,B43,7.07 nM
4,B44,1.16 nM
5,B45,0.79 nM
6,B46,7.07 nM
7,B47,1.69 nM
8,B48,12.5 nM
9,B49,1.86 nM
10,B50,11.4 nM
11,B51,0.539 nM
12,B52,1.4 nM
13,B53,6.43 nM
14,B54,0.405 nM
15,B55,0.446 nM
16,B56,0.49 nM
17,B57,5.31 nM
18,B58,0.446 nM
19,B59,1.27 nM

# Source: article PMC12416549 (2024)
